Measurements as given in US20020156245A1 (Genentech, published 2002).

T1: human Ptch-2 (SEQ ID NO:2) (human, UniProt Q9Y6C5 1-1203)
T1 construct: Its length is printed as 1203 residues in some places and 1204 in others; also called hPtch-2; patched-2
T1 sequence: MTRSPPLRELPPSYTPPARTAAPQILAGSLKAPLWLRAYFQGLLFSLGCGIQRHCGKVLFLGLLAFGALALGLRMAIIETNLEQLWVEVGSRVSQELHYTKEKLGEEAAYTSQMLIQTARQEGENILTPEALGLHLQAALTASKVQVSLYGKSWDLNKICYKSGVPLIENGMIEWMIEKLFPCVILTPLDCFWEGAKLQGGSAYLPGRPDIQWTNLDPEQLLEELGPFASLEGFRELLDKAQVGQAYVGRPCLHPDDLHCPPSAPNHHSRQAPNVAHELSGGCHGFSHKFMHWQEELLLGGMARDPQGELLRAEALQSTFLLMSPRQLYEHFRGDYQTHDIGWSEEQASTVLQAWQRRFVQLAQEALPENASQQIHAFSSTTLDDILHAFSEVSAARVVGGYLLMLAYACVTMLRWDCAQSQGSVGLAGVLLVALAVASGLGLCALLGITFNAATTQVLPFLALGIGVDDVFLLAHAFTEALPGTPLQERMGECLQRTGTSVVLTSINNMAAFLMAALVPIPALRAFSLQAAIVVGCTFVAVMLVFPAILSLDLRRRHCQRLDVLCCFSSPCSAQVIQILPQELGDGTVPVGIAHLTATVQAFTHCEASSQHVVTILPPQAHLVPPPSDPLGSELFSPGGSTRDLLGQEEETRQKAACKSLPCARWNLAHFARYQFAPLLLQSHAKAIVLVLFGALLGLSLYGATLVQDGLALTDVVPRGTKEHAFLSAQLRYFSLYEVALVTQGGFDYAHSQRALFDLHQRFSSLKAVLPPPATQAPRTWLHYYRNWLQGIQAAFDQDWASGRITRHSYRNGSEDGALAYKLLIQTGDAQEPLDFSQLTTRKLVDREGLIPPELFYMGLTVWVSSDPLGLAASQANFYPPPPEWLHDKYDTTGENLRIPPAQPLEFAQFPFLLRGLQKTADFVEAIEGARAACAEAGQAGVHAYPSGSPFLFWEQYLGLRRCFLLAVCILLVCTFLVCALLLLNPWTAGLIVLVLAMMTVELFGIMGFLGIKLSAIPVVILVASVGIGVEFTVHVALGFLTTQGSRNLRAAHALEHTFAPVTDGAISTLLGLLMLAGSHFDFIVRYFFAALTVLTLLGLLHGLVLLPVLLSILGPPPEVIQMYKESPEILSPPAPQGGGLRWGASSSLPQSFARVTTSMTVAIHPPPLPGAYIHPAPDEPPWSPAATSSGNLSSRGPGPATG


Target: T1, human Ptch-2 (SEQ ID NO:2)
Assay: Scatchard analysis of displacement of 125I-Shh from 293 cells expressing Ptch-2
Experimental: As shown on FIG. 7A, binding of ¹²⁵I-Shh can be competed with an excess of Shh, Dhh or Ihh (SEQ ID NOS: 14, 13, and 29, respectively).
To determine whether Ptch-2 is able to bind to the various hedgehog ligands, 293 cells were transfected with Ptch (SEQ ID NO:4) or Ptch-2 (SEQ ID NO:2) using standard procedures. Cells were incubated with 100 pM ¹²⁵I-Shh (19 kD amino terminal fragment of murine Shh (SEQ ID NO:14)) in the presence or absence of excess unlabeled Shh (SEQ ID NO:14) or Dhh (SEQ ID NO:13) for 2 h at room temperature. After equilibrium was reached, the ligand bound cells were centrifuged through a continuous sucrose gradient to separate unincorporated and then counted in a scintillation counter. […] Varying concentrations of cold competitor indicate that the 2 ligands have similar affinity for Ptch (SEQ ID NO:4) and Ptch-2 (SEQ ID NO:2).

| Kd [nM] | Binder |
| --- | --- |
| 0.6 | Dhh (SEQ ID NO:13) (ligand, also called Desert Hh; Desert hedgehog) not shown |
| 0.4 | Ihh (SEQ ID NO:29) (ligand, also called Indian Hh) not shown |
